Reference: the supplement of paper PMC9170038

Test system: MS2 coat protein
Assay: apparent KD of MS2 coat protein; designed switch direction (-1 OFF switch, 1 ON switch): -1; higher = weaker reporter binding
Procedure, shortened: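 Each step of the titration lasted 0.8–1.5 h at the lowest concentration and 10–20 min at the highest. The protein, SNAP-549-labelled MS2 coat protein, went from 0.7 or 1.5 nM doubling to 3 µM over RNA switches transcribed on Illumina chips by stalled E. coli RNA polymerase. Normalised cluster fluorescence was curve-fitted, and the per-design median over clusters is given as apparent KD.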

[1] = Eterna round: R95, input ligand: FMN 200 uM
[2] = Eterna round: R95, input ligand: microRNA oligo, concentration not stated
[3] = Eterna round: R95, input ligand: none
[4] = input ligand: microRNA oligo, concentration not stated

Sequence | apparent KD of MS2 coat protein [1] [nM] | apparent KD of MS2 coat protein [2] [nM] | apparent KD of MS2 coat protein [3] [nM] | apparent KD of MS2 coat protein (input ligand: FMN 200 uM) [nM] | apparent KD of MS2 coat protein (input ligand: none) [nM] | apparent KD of MS2 coat protein [4] [nM]
AAGAAACAUGAGGAUCACCCAUGUGAGGAUAUGUAAAAUAAAAGAAAAGAAAGAAUAAACAGAAGGCACAAAGG [Mat - Mod of Hog D14] (puzzle: Exclusion 1) | 69.9 | 64.4 | 52.6 | – | – | –
UCCUCACAUGAGGAUCACCCAUGUUAGGAUAUCUUAUAGAGCUUGAGACAGUUCUUUAAGAGAAGGAACUGGGC [Exclusion 1 (MOD2.2 of Edarti)] (Eterna round: R97, puzzle: Exclusion 1) | – | – | – | 120 | 115 | –
CAAUGACAUGAGGAUCACCCAUGUGAGGAUAUGGAGCGCGACCGCGCGGUCGCGUACACCAGAAGGCGCAGGAA [1st #69] (Eterna round: R97, puzzle: Exclusion 1) | – | – | – | 59.7 | 29.4 | –
CCAGGCUGUGUGAGGAUAUGCUGGUCCUUGGAUCAGCAGAAGGCACAUGAGGAUCACCCAUGUGAAUAGCUUGG [JL bmx4 3.26] (puzzle: Brourd's mod of Exclusion 4) | – | 15.8 | – | – | – | –
AGUACUAACACGAUAGUGUUAGUACAAUAAGCUUGUGAAACAUGAGGAUCACCCAUGUCCUCAUAAGCUCGUCUUAU [salish99_TOv2_r3_030] (Eterna round: R96, puzzle: Sensor v3, turn-off variant 2) | – | – | – | 15.1 | 17.3 | 507
AAUAACAGAGGAUAUACUAUUUUAUGUGUUUGUUAUUUUAAACAUGAGGAUCACCCAUGUAGAAGGCUGAUUAA [JMF 44] (puzzle: Exclusion 2) | – | 38.5 | – | – | – | –
GCAGGUUAAGUCAGGAUAUACCUAUGGAUACAUAGGUAGAAGGGACAUGAGGAUCACCCAUGUGGCUCACCUGC [Fiskers BMX 4 - 60] (puzzle: Brourd's mod of Exclusion 4) | – | 21.6 | – | – | – | –
CAGUACUGAGGAUAUACAUGAGGAUCACCCAUGUGUUCCAGCUAGGAAACUAGCGAAAGUAGAAGGCAGUACUG [salish99_ex3_r3_068] (puzzle: Exclusion 3) | – | 22.9 | – | – | – | –
UGUUUACAUGAGGAUCACCCAUGUCAGGAUAUGAUAUAUAUAUGGAAACAUAUAUAUAUCAGAAGGGACUAGUG [Jieuxxlusion 1 - Jieux - Exclusion 1] (Eterna round: R97, puzzle: Exclusion 1) | – | – | – | 156 | 87.7 | –
CAUAUAGUAGUCAGGAUAUGCGAAGAGAGAAGGAAGUAGAAGGGACAUGAGGAUCACCCAUGUAUAUUGUAAAG [EX-4 Malc #3] (puzzle: Brourd's mod of Exclusion 4) | 29.6 | 28.9 | 28.4 | – | – | –
CGGUGUCAUGUAAGGAUAUCGCAUCCCAGCGGAUACGAGAAGGUACAUGAGGAUCACCCAUGUACGAUAAAAUA [Atzabian] (puzzle: Brourd's mod of Exclusion 4) | – | 12.5 | – | – | – | –
AGAUCGUCAGGAUAUACAUGAGGAUCACCCAUGUGUAGUCCAAAUUUGACUACAACAUGUAGAAGGGACGAUCG [Exclusion 3 (MOD2 of #1 Marzena11)] (Eterna round: R97, puzzle: Exclusion 3) | – | – | – | 209 | 44 | –
GUUUUCAGACGGAGAUCCUACAUGAGGAUCACCCAUGUCUCUCUUGCUAAUUGCUCGUCUUUUCCUCCUCUGUUCUC [Elimod 35 - Jieux - Sensor, turn-off variant 1] (Eterna round: R97, puzzle: Sensor, turn-off variant 1) | – | – | – | 457 | 567 | –
GUGUAACUACACGGGCUCAACAUGAGGAUCACCCAUGUCAUACACGCAAGCUCUUUGCUUGUCUUAUCUGUCCGUGA [Erriusti] (puzzle: Sensor v3, turn-off variant 1) | 16.8 | 16.6 | 14.5 | – | – | –
GUAUAACAUGUAGGAUAUGCGUGGCGAAGCUAUGCAGAAGGACAUGAGGAUCACCCAUGUUUUAGCGUCUGCGUACAGAUGCAA [JL ENG1 1.39] (Eterna round: R96, puzzle: Exclusion NG 1) | – | – | – | 143 | 26.3 | 20.1
UUUUUAAAUGAAGGAUAUACUUAACAUGAGGAUCACCCAUGUGGUGUUGUGAGUGAGUGAGUUUAGUAGAAGGUCAAUUAUUUU [JMF's solution 20] (Eterna round: R96, puzzle: Exclusion NG 2) | – | – | – | 1020 | 288 | 287
AAGAAACAUGAGGAUCACCCAUGUGAGGAUAUGAUGAAGAAAAGAAAAGAAAGAAGAAUCAGAAGGCACAAAGG [salish99-ex1_r3_043] (puzzle: Exclusion 1) | 83.6 | 48.2 | 66.5 | – | – | –

Sequence | apparent KD of MS2 coat protein [1] [nM] | apparent KD of MS2 coat protein [2] [nM] | apparent KD of MS2 coat protein [3] [nM] | apparent KD of MS2 coat protein (input ligand: FMN 200 uM) [nM] | apparent KD of MS2 coat protein (input ligand: none) [nM] | apparent KD of MS2 coat protein [4] [nM]
GCCAGAGCAGGAUAUCUAAUAUGUCACAUGAGGAUCACCCAUGUCCAGCGAAAGCUGGAGGGAGAAGGGCUCUGGC [Fiskers Ex 5 - 21] (puzzle: Exclusion 5) | – | 51.8 | – | – | – | –
CUCUUGUCAGGAUAUUAUGGACGAAGGCAGGGCCGCGUCAGUGAGAAGGGACAUGAGGAUCACCCAUGUAAAAU [Riintesoa] (puzzle: Exclusion 4) | – | 73.9 | – | – | – | –
AGUUGCGCAGGAUAUACAUGAGGAUCACCCAUGUGAGAGAAAUAAGUGAGGAAGAAAAGUAGAAGGGCGUGACG [Mat - Exclusion 3 - Mod of Salish D73] (puzzle: Exclusion 3) | 281 | 53.8 | 57.3 | – | – | –
UACAUGAGGAUCACCCAUGUUUUGUCGUGUAUGGUAUUUAUCUAGGAUAUCAAUUGAUUUAGUUAUGAGAAGGAGAAUAUUAAU [JMF's solution 62] (Eterna round: R96, puzzle: Exclusion NG 3) | – | – | – | 27.2 | 30.1 | 20.6
UAAAUAAAUGUAGGAUAUCUGCACGAUUAGUGCAGAGAAGGACAUGAGGAUCACCCAUGUAUAGUAGCUUCGGCUACAAAUAAU [ENG1-C1] (Eterna round: R96, puzzle: Exclusion NG 1) | – | – | – | 89.9 | 71.2 | 51.9
GGAAGUAGAAACCGAUCCUACAUGAGGAUCACCCAUGUAGCAAGACGUGCACGCGAAGCUCGUCAGACUACCAGAAU [salish99_TOv1_r3_010] (puzzle: Sensor v3, turn-off variant 1) | 341 | 268 | 286 | – | – | –
GUAACAUGCUGGUGAUCAUACAUGAGGAUCACCCAUGUAACAAGCUUUUUGUUCGUCUUAUAAUUUAAGAUCACCAG [Stov1/7-B3] (Eterna round: R97, puzzle: Sensor, turn-off variant 1) | – | – | – | 19.8 | 21.8 | –
CUUAUGUGAGGAUAUCAGUAGUGAUACGAUAGUAUUACUGCUGAGAAGGUACAUGAGGAUCACCCAUGUUCCUC [Exclusion 4 - Mod Omei Ex4 344 mod 4 v.1] (puzzle: Exclusion 4) | – | 16.2 | – | – | – | –
AGUACUAACACGAAAGUGUUAGUUCAAUAAGCUUGUGAAACAUGAGGAUCACCCAUGUCCUCAUAAGCUCGUCUUAU [salish99_TOv2_r3_040] (Eterna round: R96, puzzle: Sensor v3, turn-off variant 2) | – | – | – | 15.2 | 17.5 | 461
AGAUGUAGAUACCGAUCCUACAUGAGGAUCACCCAUGUAGCUAGACGUGCUCGCGUAGCUCGUCAGACUACCAGUAG [salish99_TOv1_r3_087] (puzzle: Sensor v3, turn-off variant 1) | 242 | 156 | 267 | – | – | –
UAUAUAUAGUAAGGAUAUGUAUUUAGUUUAUAAACAGAAGGUACUGACAUGAGGAUCACCCAUGUUUUAGUGUGGGCAUGUAGA [JMF's solution 14] (Eterna round: R96, puzzle: Exclusion NG 1) | – | – | – | – | – | 71.2
GCAAGCUUUAUCAAUAAGAACAUGAGGAUCACCCAUGUAUAAGGUAUUACUUUUGGGCUCUUUAGUGCUCGUCUUAU [JR_STOV1_Sub034] (Eterna round: R97, puzzle: Sensor, turn-off variant 1) | – | – | – | 47.4 | 51.5 | –
AUGAGCAGACGGAGAUCCAACAUGAGGAUCACCCAUGUCUCAAAAGCUUUUUGCUCAUCUUAUUGUACCUUGGUGCG [Mat - Sensor v3 - turn-off var 1 - JL Mod - D18] (puzzle: Sensor v3, turn-off variant 1) | 161 | 9.21 | 170 | – | – | –
AGUAACCGGGCUUUUUGCUACAUGAGGAUCACCCAUGUUUAAGCGGAGGGAUUGAUCGUCCUAAAUUCUUUAGUCGG [Eternabot (L2) Solution 8] (Eterna round: R97, puzzle: Sensor, turn-off variant 1) | – | – | – | 16.8 | 17.4 | –
GAAAAGGUAGGAUAUACGAAAAAAAAGGGUAGAAAGAAAACACAUGAGGAUCACCCAUGUAGAAGGACCAAAAG [salish99_ex2_r3_017] (puzzle: Exclusion 2) | 66.1 | 27.3 | 20.7 | – | – | –
GGGAAGGGAGGAUAUGAGGGAGAGAACAUGAGGAUCACCCAUGUGAGACCUCAGGAUCGAUCAGAAGGCCCGAUCC [AK-MS2ROC-r4-exclusion5-14] (Eterna round: R97, puzzle: Exclusion 5) | – | – | – | 677 | 383 | –
AAGAAGCAAGGAUAUACAGAGGAGAGGAAAGCAAGAGGAGGACAUGAGGAUCACCCAUGUAGAAGGUGCAGAGA [JR_Exclu2_Sub019] (puzzle: Exclusion 2) | 67.4 | 68.8 | 63.5 | – | – | –
